According to the DeepSol protein solubility set:

Test: soluble on expression in E. coli; label from the status in PepcDB or PDB records

| Sequence | soluble on expression in E. coli |
| --- | --- |
| GPGSMEARGNVDGEKFRSINTLRTRFPALTVSDARALLERHNWNVAIAGAEAERGERQRTKADSANYFVGGGDKGSGQQVMAPSGESVSDRSGEIASGSGVHSMIDRIFRKAEVEGAKASGGDGGSGVEDNEPRAFYGRGQRLGYTANPSPYVASTLRAERSVCITVYRDGFEVDSNGFVPLNSDEGRQFVEAMDKGYVPPSLAAKYPNTDLTVNLRDCLQVDYVPPSYIAFQGDGHRLAAPSSTAASSAAPANAQASPATAGRSGTPAYDPSRTVEVRSDEATSFVVLLNTRGERRQVQVNPERHTVDDLYSLAHAYQPELQNFILVERGMPPRRLEASTRSQTIAQAKLSRAVVALQQM | soluble |
| MSLEPVQDDSVSGNFYISGKYMPSASHFGVFSAKEEKNPTVALYGLKQDWNGVSASSHADADFNNKGYSFKYENNPFLGFAGAIGYSMGGPRIEFEVSYETFDVKNQGGNYKNDAHRYCALDRKASSTNATASHYVLLKNEGLLDISLMLNACYDVVSEGIPFSPYICAGVGTDLISMFEAINPKISYQGKLGLSYSINPEASVFVGGHFHKVAGNEFRDISTLKAFATPSSAATPDLATVTLSVCHFGVELGGRFNFEGHHHHHH | not soluble |
| MNNWKLILPLMMSGSLIACTSTQTTTEPVEPETPKVEQPVTVEPEVKPEVEPKPEVKPKPETKPEKKPEPKPEKPVKVQKTPDGMLILGSEEWVYVPAIDQTFKARVDTGATTSSISATEIVPFERDGKDWVQFKIDINGKTSKEFKVPVERWAKVKQSSSDEVDKRAVVVAYIQVGDYKEKTEFTLADRDHMKFPILLGRSFFRDIAVVDVSKKYIQDKPTKSTKK | not soluble |
| MGSDKIHHHHHHMGGRGSGKTRAGAEWVSGMALGLPPFAGKPSGHIALVGETFNDAREVMVDGPSGILSVSRLVRPRYEASRRRLIWDNGAVATLFSSEDPDSLRGPQFDAAWCDELAKWKNPQETWDMLQFGLRLGDNPRQVVTTTPRAVPLLKALLTDRTVSMTHMRTAENAGNLAEGFMQTIARRYAGTRLGRQELDGELVEERPGALWSRDRIEQCFEENPPPLARIVVAVDPPASSGKASDACGIVVAGIDAEGVGHVLADESMTMAKPHQWARRAIALYHTHEADAIVAEVNQGGEMVAAEDPSVPVLKRRASRGKWLRAEPVAALYEQGRVRHAGRFPALEDEMCDFAPEGLSSGRSPDRLDALVWALGELMLGADHKPRIRRFG | not soluble |
| MLLTLNALPFVLVNCGGKKKPAPPPKAAAKPMAAPAGGAGGAGGAGGAGKSDSFDSKKQDIPSSKKEEPVAPKKEDEGNYEELAIPQ | not soluble |
| MAHHHHHHMLTRSERGMCNGRVPTKGLVGFLSGSSTGTEWRDEYLGVNAIVHGPAEKRIGVPNGVTFQGSWAEWPVGDMGQTVPYYFANNKFTLVATVSIHEVPKEDSSPIPLIGVRMNDTSSTVLFALSYTHDRKWLAIPEDAGGVEDLFGWEPHTTYQAVLRMTLDEWTAFVDQREIDRKSYNENLFDSHRISHFYIGGDSNDQSATDGHVTVTNVMLYNEDLYNNELYEPNASKVNIPSLGVEEHPTGQVTSTEVSVVHESKSEEITASCAELNEDDTDKQEEETASMIRCLQRPLPRLTRDHLFLSLPSQRRAQGMTVQRTMSSFTRAKRPSKPRRMKRINRCNGVQTCSHKTHSQRN | not soluble |
| MAHHHHHHMAKAIGDGDTGDAWWANPEHLAAIDATAAAEAVVSVPHQPEKNTGTGCSSRITAMRYYMKPDTWTQTLLSDEGETARENRTDGEVPHSGSASTGAVTSSDPRGCNSDAHVHHQATSSLLSTASSVVTTTATEEASSLPAASSPLHGLPLHQLIEQHAALVRRLVQVLAPQRQTIPHVIRELCTTRVTSPSSAVASRVCVLPSMDASNAEPMQYTERDVAAAVEQLTSSHPRQPRLRELKSDGYLLMNLEGFADGKTRHKAVNRAYPALALHWPASVQQMDAMERYVDRDVVLDTRKRHPELSGEGSDKKQGQKRDRSRSSTSSNASGADEDGAHKARAPGYTSSPPSPPLGMAASPKRTAPTTSSRRFFQSLREYPRSLEHGDLHAWARGTAAQQARDCLQAATTLTQSSTSTVDGSSDAATLGPLPITNEEDVAVLRCQYDALAAAESVVEKQLRAYSDTVQELRGWYRGELCTQQFRYELEAWLRTQEESRAVLTDLYAQMHAMRYSLQRDLSNYLHLHALGVL | soluble |
| MGHHHHHHSHMGGLPMISASLQQRKTRTRRSMLFVPGANAAMVSNSFIYPADALMFDLEDSVALREKDTARRMVYHALQHPLYRDIETIVRVNALDSEWGVNDLEAVVRGGADVVRLPKTDTAQDVLDIEKEILRIEKACGREPGSTGLLAAIESPLGITRAVEIAHASERLIGIALGAEDYVRNLRTERSPEGTELLFARCSILQAARSAGIQAFDTVYSDANNEAGFLQEAAHIKQLGFDGKSLINPRQIDLLHNLYAPTQKEVDHARRVVEAAEAAAREGLGVVSLNGKMVDGPVIDRARLVLSRAELSGIREE | not soluble |
| MGSDKIHHHHHHMGKGFTGAILTVMGVKSHIATTTGKTVINDRMVTIHFHSETLLNTEGEVPGDWLRLWFPHESRPGKLYQRAYTLTNVDADAGTFDLAFVLHEPLGPASAWATRCEAGESLEVMRYPGIPFAIPDPAPRGFLFLGDLTSYPAICSILETLDGEIPATAYLIAHDPLDYTFDFPQGEHITAQWISNEQSFIDHIADTDYTDFYTWIGAESSETRAAKKHLQTHAGMPKTHMNAQGYWNKGRAMGKSN | not soluble |
| MGSDKIHHHHHHMNSPKNSLYEEKSGHYYNAVNPNLLKHIKKEWKEVLDIGCSSGALGAAIKENGTRVSGIEAFPEAAEQAKEKLDHVVLGDIETMDMPYEEEQFDCVIFGDVLEHLFDPWAVIEKVKPYIKQNGVILASIPNVSHISVLAPLLAGNWTYTEYGLLDKTHIRFFTFNEMLRMFLKAGYSISKVDRVYVDHKMYEPLIEELYGICKKYRLGSGFMAETVVFQYIIEAEKSQL | not soluble |
| MAHHHHHHMQTNVLERIRALEADIERCIDSIVQQDLFAASIENERHRILLDHFTLQQVGIVRSTAEKLLDVYLDEDDIVQVQNAPAESPDNIAAAVKEFEAKIADIREYHHIYRDLPPVKDELAVPSPRLLDDIFTVHERYGACFDMDAHYNRYSAFMVHTKTLAEGCVSASAEVKKELAPLSPSSVLKWSSMWPGRLDFFSFTKALPQLLLHEVEAHRKIVGFALYKPFVAELLAYLEGFYRRIHPLKPAALERLMAEVESDAEKYWASLVEVKAEVTSVAATTAAASTEDEQADVQDVEDERVEEREAGGAAGSSSKGQTAAPVRIAVGNKVACGLAIPPSLRQHVKKFSLWPLPLIEKLIEDVGQASGTSDGAVASTSKLPTSVADVKMVCLMEAKAAALLQSFLYTTLETTNTSLLRDYSRTLEELENDREVAEQEFLDSLEEVRKNSADTMEGTVAHAAEYNLKLALEDSKGSRRGRHGKASAPAPVAAAPAAPELPLEEEEEQLIGENGEPIPRWLAQLHQLDKMFRCDVCGGTIYKGPKVFREHFGAERHAEGLRRLGVMHHLKSYEGITSIRQVVEMREQLTGGESGFRKRLRDNTDNEEIQDARGHVVTAKEYLRLQQRRR | not soluble |
| MSKSNQKIASIEQLSNNEGIISALAFDQRGALKRMMAKHQTEEPTVAQIEQLKVLVAEELTQYASSILLDPEYGLPASDARNKDCGLLLAYEKTGYDVNAKGRLPDCLVEWSAKRLKEQGANAVKFLLYYDVDDAEEINIQKKAYIERIGSECVAEDIPFFLEVLTYDDNIPDNGSVEFAKVKPRKVNEAMKLFSEPRFNVDVLKVEVPVNMKYVEGFAEGEVVYTKEEAAQHFKDQDAATHLPYIYLSAGVSAELFQETLKFAHEAGAKFNGVLCGRATWSGAVQVYIEQGEDAAREWLRTTGFKNIDDLNKVLKDTATSWKQRK | soluble |
| MSKIYVLDTNVLLQDPNAIFSFEENEVVIPAVVLEEVDSKKRYMDEVGRNARHVSKLIDALRQKGRLHEHVPLDTGGTLRIELNHRSFHQLQEIFIEKTNDNRILAVAKNLSLEEETKENGRPVILVSKDVLVRVKADAIGLLAEDFLNDRVVDNDEMY | not soluble |
| MNRYRKILVAGIIDQEEQPALKRALDIANRTTKPSEITLFCTTYDFSYEMTSMLSADERMAMRNGVVSQKVKMLNDVIADYSKSDHVTITIKVVWHNRPYEAIINEIFDDSYNILIKATRQHAKLETVFFTPTDWHLLRKSPIPVLLVKERPWPENGNILASVHVGSENPAHLQLNDKMVDEAIYFAEVLNSTPHLVNAYPSTPPSIHVELPEFNAVQYKDAIRGHHLTQMKALRQKYGIPEEQTHVYEGPTEEVISEVEDELTAGLVILGTTGRTGLSAIFIGNTAENTLDLLNCDILALKPDGYISPLDPNHIS | not soluble |
| GHMASMDISGGNTSRQPQKKSNQNIQVYVRVRPLNSRERCIRSAEVVDVVGPREVVTRHTLDSKLTKKFTFDRSFGPESKQCDVYSVVVSPLIEEVLNGYNCTVFAYGQTGTGKTHTMVGNETAELKSSWEDDSDIGIIPRALSHLFDELRMMEVEYTMRISYLELYNEELCDLLSTDDTTKIRIFDDSTKKGSVIIQGLEEIPVHSKDDVYKLLEKGKERRKTATTLMNAQSSRSHTVFSIVVHIRENGIEGEDMLKIGKLNLVDLAGSENVSKAGNEKGIRVRETVNINQSLLTLGRVITALVDRAPHVPYRESKLTRLLQESLGGRTKTSIIATISPGHKDIEETLSTLEYAHRAKNIQNKPEVNQKLTK | soluble |
| VAEKPYLKDPEVAAGYHRVAKRELPEPKIMEVPQRFAAYVRHEGYNRSIRNAWLILKAWASSENRDFSVQYGLHHSNPAWVELDKCRYVACMAIDKPLKVRGVVNQMTIPGGLHAVFRLTGVYGELLPQLSMVLEKWLPNSGFKQRSTPAYVHYHKNHFLSHDEAFELDFYLPISFF | not soluble |
| MKYAVLIGDGMADYPIEELGSRTILQAARTPAMDSIAARGKTGLAKTVPEGFPPGSDVANMSIFGYDPAIYYSGRAPLEAASMGVALAADDVAFRCNLITIENGKIKDYSAGHISSDEAEILIDTLDSELRTEKVRFYPGISYRHLIVAGNDLGAETECLEHHHHHH | soluble |
| MSLSEDLRFFEFFAGGGMARAGLGNQWQCLFANDMDRIKASTYIQNWGKDHFDSRDIREVNSEDLERNGDLAWASFPCQDLSVAGNGLGIGSSSAKDFTRSGALWPFLDLIDTLRQEERQPPLLVLENVVGLLTLEGGRDFAAICERLGEIGYRYGAVIIDAKHFLPQSRPRVFIIAVQRNIDIPCKLSRGMATANWHTPTLLRAYKSLTPILHADWVWWELGDAPILQENALESFIQREGVLWNTPEETKRIISMMAPAHLARLENAKCAGGVAVGSLYLRMRREGGINKQRAEITFSPLLGCLRTPRGGASRPRIIVVESGHVRTRLLTICEAARLMGLANTYILPEIYHHAFKVIGDGVAVPAVRFLAERLLEPLAIAARGQIAIPHEKAFMAEGHHHHHH | soluble |
| MGSDKIHHHHHHMAKTIKLILSDIDGTILDNNHQVDAHLRDTITELKKESIPFVLASARSPHGMFPIAQELNLGANPIACYNGALIVEGNKEHYQTLIEHGLSKADVKKIVALIKKQFPHISINFYSGGDWIVEEIDQWVQIEADITKESPDIRNFDTLLTDDAIPIHKLLLIANAQAIQEFFTYLKRVNFEDASFYLSKDNYLEVTSQSVSKENALLEIAKYYDISLSQTMAIGDNYNDIPMLKLAGLGVAMANAPQAVKNEADIETVSNNDNGVSKVIEDYVLI | not soluble |
